In this experiment the target is microtubule (MT) of HeLa cells (human (endogenous in HeLa)) (UniProt P68363). As to the kind of experiment: single-molecule live-cell imaging.

Drawing on paper doi:10.1101/2021.04.05.438428, this text covers koff and mean residence time for 1 substance.

One may read the koff as a measure of how fast the partners let go of each other. Lower therefore signals slow dissociation.

Chain of UniProt P68363 (P68363 whole entry): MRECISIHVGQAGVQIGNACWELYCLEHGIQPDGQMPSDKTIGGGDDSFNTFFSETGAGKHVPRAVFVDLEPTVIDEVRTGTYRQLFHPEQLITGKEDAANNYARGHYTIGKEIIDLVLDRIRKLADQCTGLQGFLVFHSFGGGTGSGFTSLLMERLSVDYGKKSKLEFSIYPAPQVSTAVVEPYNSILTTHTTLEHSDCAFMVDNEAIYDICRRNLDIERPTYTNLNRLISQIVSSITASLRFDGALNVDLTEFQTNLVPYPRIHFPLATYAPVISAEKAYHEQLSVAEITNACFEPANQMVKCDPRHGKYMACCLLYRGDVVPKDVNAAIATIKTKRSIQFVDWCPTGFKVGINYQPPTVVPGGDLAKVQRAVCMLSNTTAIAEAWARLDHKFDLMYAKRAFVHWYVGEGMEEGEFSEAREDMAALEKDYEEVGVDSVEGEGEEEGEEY

As to “mouse dynein heavy chain (DYNC1H1) tagged with GFP (from UniProt Q9JHU4 1-4644) (natural protein)”, the dissociation rate constant (koff) turned out to be 1.7 s⁻¹ and the mean residence time came to 0.55 s.
